Results: patent US20120230990A1 (MERCK SERONO, published 2012)
Values joined by “and” are separate entries in the source; they are usually repeats but may differ in a detail not shown here. Equal values may be shown once.

B1: human IL-22RA (recombinant, form not stated) (receptor)
chain: HAPEDPSDLLQHVKFQSSNFENILTWDSGPEGTPDTVYSIEYKTYGERDWVAKKGCQRITRKSCNLTVETGNLTELYYARVTAVSAGGRSATKMTDRFSSLQHTTLKPPDVTCISKVRSIQMIVHPTPTPIRAGDGHRLTLEDIFHDLFYHLELQVNRTYQMHLGGKQREYEFFGLTPDTEFLGTIMICVPTWAKESAPYMCRVKTLPDRTWT
notes: a soluble ECD is likely; also called hIL-22RA; human interleukin 22 receptor alpha

What was measured:
[1] = molecular target: T1, 280.346.TSY (humanized anti-human IL-22RA antibody comprising 280.VH3-66-46 paired with 280.VK4-1-TSY, human …); experiment: competitive ELISA: soluble competitor against coated human IL-22RA-ECD for biotinylated 280-346-TSY; soluble human IL-22RA as competitor
T1 construct: Produced in CHO cells; also called 280.VH3-66-46/VK4-1-TSY; 280.VH3-66.46 paired with 280.IGKV4-1-TSY
Procedure: (§1) FIG. 23 reports the results of a competitive ELISA done to measure the specificity of 280.346.TSY to human IL-22RA. Microtiter plates were coated with human IL-22RA-ECD (i.e. IL-22RA-Extra Cellular Domain). Biotinylated 280-346-TSY antibody was added to the plate in the presence of competitors: human interleukin 22 receptor alpha (hIL-22RA), human IL-22 binding protein (hIL-22BP), murine IL-22 receptor alpha (mIL-22RA), human IL-10 receptor alpha (hIL-10R) and human IL-20 receptor alpha (hIL-20R).
(§2) Specificity and binding affinity of 280.346.TSY was determined using a competitive ELISA. Microtiter plates were coated with human IL-22RA-ECD (i.e. IL-22RA-Extra Cellular Domain). Biotinylated 280-346-TSY antibody was added to the plate in the presence of competitors: human interleukin 22 receptor alpha (hIL-22RA), human IL-22 binding protein (hIL-22BP), mouse IL-22 receptor alpha (mIL-22RA), human IL-10 receptor alpha (hIL-10R) and human IL-20 receptor alpha (hIL-20R).

[2] = molecular target: T2, human IL-22RA on cells (HepG2 hepatoma cells, normal human keratinocytes, BaF3 cells transfected with human … (human, UniProt Q8N6P7 16-574)); experiment: cell-based or functional assay
T2 sequence: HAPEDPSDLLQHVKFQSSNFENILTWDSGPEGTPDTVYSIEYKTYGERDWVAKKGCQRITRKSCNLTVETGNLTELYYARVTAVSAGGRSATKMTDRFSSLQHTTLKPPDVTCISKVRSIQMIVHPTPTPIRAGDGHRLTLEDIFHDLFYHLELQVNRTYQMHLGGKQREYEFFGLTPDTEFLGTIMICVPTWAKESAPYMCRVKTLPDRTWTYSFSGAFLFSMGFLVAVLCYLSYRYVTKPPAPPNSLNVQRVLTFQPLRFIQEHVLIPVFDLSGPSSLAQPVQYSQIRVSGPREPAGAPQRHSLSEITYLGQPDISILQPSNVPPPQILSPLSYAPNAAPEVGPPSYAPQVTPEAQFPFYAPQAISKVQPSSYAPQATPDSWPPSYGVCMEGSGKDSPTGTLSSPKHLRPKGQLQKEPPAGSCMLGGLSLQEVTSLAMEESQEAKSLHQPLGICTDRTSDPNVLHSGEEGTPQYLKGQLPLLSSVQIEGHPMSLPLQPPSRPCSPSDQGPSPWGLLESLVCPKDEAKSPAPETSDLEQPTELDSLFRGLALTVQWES

[3] = molecular target: T3, murine IL-22RA on cells (HEPA1-6 hepatoma cells, BaF3 cells transfected with murine IL-22RA and IL-10RB) (murine, UniProt Q80XZ4 16-581); experiment: cell-based or functional assay
T3 sequence (looked up): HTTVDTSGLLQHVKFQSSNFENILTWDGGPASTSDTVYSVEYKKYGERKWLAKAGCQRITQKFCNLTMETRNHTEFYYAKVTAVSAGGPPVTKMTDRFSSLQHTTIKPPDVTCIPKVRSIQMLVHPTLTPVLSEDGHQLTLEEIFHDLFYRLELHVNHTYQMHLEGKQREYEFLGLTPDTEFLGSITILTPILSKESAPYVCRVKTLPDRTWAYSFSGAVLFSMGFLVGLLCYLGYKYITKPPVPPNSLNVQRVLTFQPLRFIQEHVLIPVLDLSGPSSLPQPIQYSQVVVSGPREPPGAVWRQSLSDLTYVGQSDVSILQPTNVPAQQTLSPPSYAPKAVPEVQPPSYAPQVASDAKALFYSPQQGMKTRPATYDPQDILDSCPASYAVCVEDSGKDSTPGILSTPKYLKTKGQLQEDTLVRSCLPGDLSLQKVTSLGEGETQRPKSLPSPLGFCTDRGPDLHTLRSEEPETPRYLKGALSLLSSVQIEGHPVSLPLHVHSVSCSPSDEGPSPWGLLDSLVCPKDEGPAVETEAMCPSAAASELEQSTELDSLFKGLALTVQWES

[4] = molecular target: T1, 280.346.TSY (humanized anti-human …); experiment: competitive ELISA: soluble competitor against coated human IL-22RA-ECD for biotinylated 280-346-TSY; soluble murine IL-22RA as competitor
Procedure: as §1, §2

[5] = molecular target: B1; experiment: Biacore, NiNTA-purified Fab

T1 sequence (VL, as listed by the source): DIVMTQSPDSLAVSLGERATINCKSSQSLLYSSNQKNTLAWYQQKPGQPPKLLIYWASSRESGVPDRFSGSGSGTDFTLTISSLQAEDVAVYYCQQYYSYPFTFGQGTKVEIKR

With B1 the IC50 [1] was 18.2 pM.

B2: mouse 280.46.3.4 (mouse anti-human IL-22RA monoclonal antibody from hybridoma 280.46.3.4, ATCC PTA-6284) (antibody, V domains shown)
VH: EVQLQQSGPELVRPGTSVKISCKASGYSLTADYMNWVKQSPEESLEWIGEINPSTGTTTYNQKFEAKATLTVDQSSNTAYLQLTSLTSEDSAVYYCARFDAYFDYWGQGTTVTVSS
VL: DIVMTQSPSSLAVSVGEKVTMSCKSSQSLLYSSNQKNCLAWYQQKPGQSPKLLIYWASSRESGVPDRFTGSGSGTDFTLTISSVKTEDLAVYYCQQYFSYPFTFGSGTKLEIKR
B2 was tested, and the “IC50, STAT3 phosphorylation assay in human HepG2 hepatoma cells stimulated with recombinant human IL-22” value [2] was 333 pM and 370 pM and 266 pM, the “IC50, STAT3 phosphorylation assay in normal human keratinocytes stimulated with recombinant human IL-22” value [2] was 542 pM and the “IC50, proliferation assay in BaF3 cells transfected with human IL-22RA and IL-10RB, cultured with recombinant human IL-22” value [2] was 545 pM and 587 pM. The “IC50, proliferation assay in BaF3 cells transfected with murine IL-22RA and IL-10RB, cultured with recombinant murine IL-22” value [3] was 849 pM and 1470 pM.

B3: murine IL-22RA (recombinant, form not stated) (receptor, UniProt Q80XZ4 16-230, looked up)
chain: HTTVDTSGLLQHVKFQSSNFENILTWDGGPASTSDTVYSVEYKKYGERKWLAKAGCQRITQKFCNLTMETRNHTEFYYAKVTAVSAGGPPVTKMTDRFSSLQHTTIKPPDVTCIPKVRSIQMLVHPTLTPVLSEDGHQLTLEEIFHDLFYRLELHVNHTYQMHLEGKQREYEFLGLTPDTEFLGSITILTPILSKESAPYVCRVKTLPDRTWAYS
notes: also called mIL-22RA; mouse IL-22 receptor alpha
In the case of B3, the IC50 [4] is reported as 149 pM.

B4: humanized 280.46.3.4 antibody comprising 280.VH3-66-1 paired with 280.VK4-1-S, human IgG1/kappa (antibody, V domains shown)
VH: EVQLVESGGGLVQPGGSLRLSCAASGYSLTADYMNWVRQAPGKGLEWIGEINPSTGTTTYNQKFEARATLTVDQSKNTAYLQMNSLRAEDTAVYYCARFDAYFDYWGQGTLVTVSS
VL: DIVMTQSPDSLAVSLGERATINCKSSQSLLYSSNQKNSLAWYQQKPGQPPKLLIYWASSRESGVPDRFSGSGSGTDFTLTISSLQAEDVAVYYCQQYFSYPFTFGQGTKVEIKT
For B4, the “IC50, STAT3 phosphorylation assay in human HepG2 hepatoma cells stimulated with recombinant human IL-22” value [2] was 258 pM, the “IC50, proliferation assay in BaF3 cells transfected with human IL-22RA and IL-10RB, cultured with recombinant human IL-22” value [2] was 340 pM and the “fold potency against the mouse parental antibody 280.46.3.4, STAT3 phosphorylation assay in HepG2 cells” value (from here on “fold potency … in HepG2 cells”) [2] was 1.4 fold. The “fold potency against the mouse parental antibody 280.46.3.4, proliferation of human IL-22 receptor transfected BaF3 cells” value [2] was 1.7 fold, the “IC50, proliferation assay in BaF3 cells transfected with murine IL-22RA and IL-10RB, cultured with recombinant murine IL-22” value [3] was 693 pM and the “fold potency against the mouse parental antibody 280.46.3.4, proliferation of murine IL-22 receptor transfected BaF3 cells” value [3] was 2.1 fold.

B5: humanized 280.46.3.4 antibody comprising 280.VH3-66-18 paired with 280.VK4-1-T, human IgG1/kappa (antibody, V domains shown)
VH: EVQLVESGGGLVQPGGSLRLSCAASGYSLTAEYMNWVRQAPGKGLEWIGEINPSTGTTTYNQKFKGRATLSVDQSKNTAYLQMNSLRAEDTAVYYCARFDAYFDYWGQGTLVTVSS
VL: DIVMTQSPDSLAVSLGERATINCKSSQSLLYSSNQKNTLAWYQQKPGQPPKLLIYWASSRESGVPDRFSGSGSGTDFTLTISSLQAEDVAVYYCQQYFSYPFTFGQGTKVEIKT
For B5, the “IC50, STAT3 phosphorylation assay in human HepG2 hepatoma cells” value [2] was 132 pM and the “fold potency … in HepG2 cells” value [2] was ~3 fold.

B6: Fab of D96E mutant: 280.VH3-66-4 with Asp to Glu at position 96, paired with 280.VK4-1-T (Fab, name in Kabat numbering, V domains shown)
VH: EVQLVESGGGLVQPGGSLRLSCAASGYSLTADYMNWVRQAPGKGLEWIGEINPSTGTTTYNQKFKGRATLSVDQSKNTAYLQMNSLRAEDTAVYYCARFEAYFDYWGQGTLVTVSS
VL: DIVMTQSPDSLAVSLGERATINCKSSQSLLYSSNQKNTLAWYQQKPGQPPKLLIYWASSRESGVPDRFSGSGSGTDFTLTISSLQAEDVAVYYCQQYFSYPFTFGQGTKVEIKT
notes: NiNTA-purified Fab, which implies a His tag that is not described
For B6, the “fold reduction of affinity against parental unmutated D32 (280.VH3-66-4)” value [5] was ~500 fold.

B7: humanized 280.46.3.4 antibody comprising 280.VH3-66-4 paired with 280.VK4-1-T, human IgG1/kappa (antibody, V domains shown)
VH: EVQLVESGGGLVQPGGSLRLSCAASGYSLTADYMNWVRQAPGKGLEWIGEINPSTGTTTYNQKFKGRATLSVDQSKNTAYLQMNSLRAEDTAVYYCARFDAYFDYWGQGTLVTVSS
VL: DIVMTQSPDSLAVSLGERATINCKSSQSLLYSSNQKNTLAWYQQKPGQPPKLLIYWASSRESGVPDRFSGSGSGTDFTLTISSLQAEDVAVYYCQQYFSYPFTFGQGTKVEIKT
B7 was tested, and the “IC50, STAT3 phosphorylation assay in human HepG2 hepatoma cells stimulated with recombinant human IL-22” value [2] was 183 pM, the “IC50, proliferation of human IL-22 receptor (IL-22RA and IL-10RB) transfected BaF3 cells” value [2] was 334 pM and the “fold potency … in HepG2 cells” value [2] was 1.8 fold. For the same binder, the “fold potency against the mouse parental antibody 280.46.3.4, proliferation of human IL-22 receptor transfected BaF3 cells” value [2] was 1.75 fold, the “IC50, proliferation of murine IL-22 receptor (IL-22RA and IL-10RB) transfected BaF3 cells” value [3] was 687 pM and the “fold potency against the mouse parental antibody 280.46.3.4, proliferation of murine IL-22 receptor transfected BaF3 cells” value [3] was 2.1 fold.

B8: Fab of D32E mutant: 280.VH3-66-18 paired with 280.VK4-1-T (Fab, V domains shown)
VH: EVQLVESGGGLVQPGGSLRLSCAASGYSLTAEYMNWVRQAPGKGLEWIGEINPSTGTTTYNQKFKGRATLSVDQSKNTAYLQMNSLRAEDTAVYYCARFDAYFDYWGQGTLVTVSS
VL: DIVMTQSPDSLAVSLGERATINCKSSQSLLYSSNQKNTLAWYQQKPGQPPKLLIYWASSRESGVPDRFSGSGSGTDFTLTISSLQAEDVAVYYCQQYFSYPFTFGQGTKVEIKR
notes: NiNTA-purified Fab, which implies a His tag that is not described; also called version 18
B8 was tested, and the “fold decrease of the off rate against parental unmutated D32 (280.VH3-66-4)” value [5] was ~5 fold and the “fold increase of the on rate against parental unmutated D32 (280.VH3-66-4)” value [5] was ~2 fold.
